The source of these data is patent JPH11332594A (dated 1999).

The assay addresses T1, ヒト可溶性CD4 (human soluble CD4 made in Example 1, C-terminal FLAG-tag, expressed in COS7 cells) (human, UniProt P01730 26-396).
T1 construct: extracellular domain; Purified on anti-FLAG-M2 gel; also called ヒトCD4抗原
The experiment in a line: SPR, BIA-core2000; human soluble CD4 amine-coupled to CM5 chip, antibody as analyte (50 μg/ml). Background: In SPR one partner is held on a chip, and binding of the other changes the refractive index at the surface.

B1: 4H5抗体 (anti-human CD4 mouse monoclonal antibody from Mouse-Mouse hybridoma 4H5, FERM P-16807) (antibody, V domains shown)
VH: QVQLQQSGPELVKPGASVKMSCKASGYTFTDYVINWLNQRTGQGLEWIGEIYPGSGSAYYNEMFKGKATLTADKSSNTAYMQLSSLTSEDSAVYFCARRGTGTGFAYWGRGTLVTVSA
VL: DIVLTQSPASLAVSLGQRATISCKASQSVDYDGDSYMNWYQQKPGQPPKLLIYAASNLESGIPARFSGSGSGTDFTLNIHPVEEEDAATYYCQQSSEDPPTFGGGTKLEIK
notes: Whole mouse monoclonal antibody from the hybridoma; also called 4H5 antibody; 抗ヒトCD4抗体(4H5抗体)
In turn, B1 showed a Kd of 0.808 nM and a koff of 5.33e-06 s⁻¹.

B2: キメラ4H5抗体 (human-mouse chimeric anti-CD4 antibody expressed from plasmid pG14H5 in COS7 cells) (antibody, V domains shown)
VH: LQQSGPELVKPGASVKMSCKASGYTFTDYVINWLNQRTGQGLEWIGEIYPGSGSAYYNEMFKGKATLTADKSSNTAYMQLSSLTSEDSAVYFCARRGTGTGFAYWGRGTLVTVSA
VL: LTQSPASLAVSLGQRATISCKASQSVDYDGDSYMNWYQQKPGQPPKLLIYAASNLESGIPARFSGSGSGTDFTLNIHPVEEEDAATYYCQQSSEDPPTFGGGTKLEIK
notes: The human light chain constant region is not specified; also called chimeric 4H5 antibody; ヒトマウスキメラ抗CD4抗体
The molecule B2 showed an equilibrium dissociation constant (Kd) of 1.24 nM and an off-rate (koff) of 2.92e-05 s⁻¹.

For orientation: Kd means the constant that tells how readily two partners part at equilibrium. The term koff denotes the rate constant with which the complex falls apart. Higher therefore signals a short-lived complex.
